Reference: publication PMC1475753

Assays:
[1] = biological target: T1, φ29 DNA polymerase K538A (bacteriophage φ29, UniProt P03680 1-575, K538A); assay: EMSA
T1 sequence: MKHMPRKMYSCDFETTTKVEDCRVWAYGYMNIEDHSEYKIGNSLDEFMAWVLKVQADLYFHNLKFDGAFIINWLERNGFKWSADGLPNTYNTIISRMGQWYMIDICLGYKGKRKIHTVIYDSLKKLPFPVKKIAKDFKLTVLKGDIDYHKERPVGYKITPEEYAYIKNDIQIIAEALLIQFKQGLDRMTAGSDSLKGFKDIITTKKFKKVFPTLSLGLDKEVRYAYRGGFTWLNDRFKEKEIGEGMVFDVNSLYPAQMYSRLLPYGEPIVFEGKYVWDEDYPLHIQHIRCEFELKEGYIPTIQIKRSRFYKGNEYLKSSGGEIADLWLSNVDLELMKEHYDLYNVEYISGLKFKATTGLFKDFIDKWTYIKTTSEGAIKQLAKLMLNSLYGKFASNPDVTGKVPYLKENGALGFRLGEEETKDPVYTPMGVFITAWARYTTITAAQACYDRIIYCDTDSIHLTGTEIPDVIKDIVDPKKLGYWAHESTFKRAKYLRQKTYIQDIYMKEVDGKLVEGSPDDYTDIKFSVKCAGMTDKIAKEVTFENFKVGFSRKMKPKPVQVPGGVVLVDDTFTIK

[2] = biological target: T2, φ29 DNA polymerase T573A (bacteriophage φ29, UniProt P03680 1-575, T573A); assay: EMSA
T2 sequence: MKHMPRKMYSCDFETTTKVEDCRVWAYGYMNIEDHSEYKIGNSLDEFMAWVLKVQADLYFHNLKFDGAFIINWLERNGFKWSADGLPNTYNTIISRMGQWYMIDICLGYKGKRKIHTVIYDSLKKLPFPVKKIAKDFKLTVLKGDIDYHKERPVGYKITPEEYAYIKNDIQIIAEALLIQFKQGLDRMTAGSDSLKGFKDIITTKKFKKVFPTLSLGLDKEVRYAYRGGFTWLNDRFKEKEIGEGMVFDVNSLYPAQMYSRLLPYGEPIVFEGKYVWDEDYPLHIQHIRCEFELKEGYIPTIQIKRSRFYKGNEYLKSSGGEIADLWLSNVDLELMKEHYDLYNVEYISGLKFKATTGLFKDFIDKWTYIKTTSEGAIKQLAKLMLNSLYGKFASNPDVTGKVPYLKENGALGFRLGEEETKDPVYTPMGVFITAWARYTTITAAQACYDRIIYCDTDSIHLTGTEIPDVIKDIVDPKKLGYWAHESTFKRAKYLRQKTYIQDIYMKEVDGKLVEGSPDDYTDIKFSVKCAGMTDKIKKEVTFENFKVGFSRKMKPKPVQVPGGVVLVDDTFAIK

B1: sp1/sp1c+6 (15/21mer) (dsDNA)
DNA 1: GATCACAGTGAGTAC
DNA 2: TCTATTGTACTCACTGTGATC
- binding result [1]: no binding
- binding result [2]: no binding
